Laboratory results taken from the supplement of paper PMC7125110.
± gives the standard error. This sample holds only a part of the variants without activity.

B1: glmS ribozyme (parent)
chain: AUAAAAGCGCCAGAACUACAGAAAUGUAGUUGACGAGGAGGAGGUUUAUCGAAUUUUCGGCGGAUGCCUCCAAA

Key:
Settings in all cases: with glucosamine-6-phosphate
glucosamine-6-phosphate [1] = variants of: B1; test: self-cleavage kobs at 40 uM GlcN6P; higher = faster cleavage; RNA array
In short: (§1)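 The measurements used barcoded ribozyme variants on sequenced MiSeq chips, transcribed in situ by E. coli RNA polymerase and tracked at 37 °C with a hybridised Cy3 probe. Glucosamine-6-phosphate, 40 μM to 10 mM in HEPES/KCl/Mg(OAc)2 buffer, was flowed in while tiles were imaged over ~14 h. Baseline-normalised signals, also normalised to non-cleaving reference variants, gave per-tile medians that were fit to one- or two-exponential decays for kobs. kcat and KM resulted from weighted Michaelis–Menten fits across concentrations.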

glucosamine-6-phosphate [2] = variants of: B1; test: self-cleavage kobs at 10000 uM GlcN6P; higher = faster cleavage; RNA array
In short: as §1

glucosamine-6-phosphate [3] = variants of: B1; test: self-cleavage kobs at 160 uM GlcN6P; higher = faster cleavage; RNA array
In short: as §1

glucosamine-6-phosphate [4] = variants of: B1; test: self-cleavage kobs at 640 uM GlcN6P; higher = faster cleavage; RNA array
In short: as §1

glucosamine-6-phosphate [5] = variants of: B1; test: self-cleavage kobs at 2500 uM GlcN6P; higher = faster cleavage; RNA array
In short: as §1

Variant	self-cleavage kobs at 40 uM GlcN6P (glucosamine-6-phosphate [1])	self-cleavage kobs at 10000 uM GlcN6P (glucosamine-6-phosphate [2])	self-cleavage kobs at 160 uM GlcN6P (glucosamine-6-phosphate [3])	self-cleavage kobs at 640 uM GlcN6P (glucosamine-6-phosphate [4])	self-cleavage kobs at 2500 uM GlcN6P (glucosamine-6-phosphate [5])
C34U A36U G66A	< 1e-05 s⁻¹	< 1e-05 s⁻¹	–	–	–
C34U G59C C71G	< 1e-05 s⁻¹	< 1e-05 s⁻¹	–	–	–
U31G G32C G38U G43U G59A G63A U69A	< 1e-05 s⁻¹	–	–	–	–
G32A G35A	< 1e-05 s⁻¹	< 1e-05 s⁻¹	< 1e-05 s⁻¹	< 1e-05 s⁻¹	< 1e-05 s⁻¹
C34A G44U	< 1e-05 s⁻¹	< 1e-05 s⁻¹	< 1e-05 s⁻¹	< 1e-05 s⁻¹	< 1e-05 s⁻¹
C34U G62C	< 1e-05 s⁻¹	< 1e-05 s⁻¹	< 1e-05 s⁻¹	< 1e-05 s⁻¹	< 1e-05 s⁻¹
U31G A33G	< 1e-05 s⁻¹	< 1e-05 s⁻¹	–	< 1e-05 s⁻¹	–
U31G A42C	< 1e-05 s⁻¹	–	< 1e-05 s⁻¹	–	< 1e-05 s⁻¹
G32A C50G G60A C68G	6.94e-05 ± 1.7e-05 s⁻¹	5.25e-05 ± 1.1e-05 s⁻¹	–	–	–
C34G G59A G60U	< 1e-05 s⁻¹	< 1e-05 s⁻¹	< 1e-05 s⁻¹	< 1e-05 s⁻¹	–
A33U G38U A42U U56C G63U	< 1e-05 s⁻¹	< 1e-05 s⁻¹	–	–	–
G32C A39C G44A A48G U65C C68A C71A	< 1e-05 s⁻¹	< 1e-05 s⁻¹	–	–	–
A33G C50U	< 1e-05 s⁻¹	< 1e-05 s⁻¹	–	< 1e-05 s⁻¹	–
C34A C58U C71U	< 1e-05 s⁻¹	< 1e-05 s⁻¹	–	–	–
C34A U47A	< 1e-05 s⁻¹	–	–	–	–
C34G A42C C71U	< 1e-05 s⁻¹	–	–	–	< 1e-05 s⁻¹
U31G A36C C61U	< 1e-05 s⁻¹	< 1e-05 s⁻¹	–	–	–
C34U C68G	0.000563 ± 0.00025 s⁻¹	0.000463 ± 0.00015 s⁻¹	–	0.00228 ± 0.0011 s⁻¹	–
A33C C34A	< 1e-05 s⁻¹	< 1e-05 s⁻¹	< 1e-05 s⁻¹	< 1e-05 s⁻¹	< 1e-05 s⁻¹
U31C G38A U46G	< 1e-05 s⁻¹	–	–	–	–
U31C G44U	< 1e-05 s⁻¹	2.15e-05 ± 1e-05 s⁻¹	< 1e-05 s⁻¹	–	–
C34A A39C	< 1e-05 s⁻¹	< 1e-05 s⁻¹	< 1e-05 s⁻¹	–	< 1e-05 s⁻¹
C34U G38C	< 1e-05 s⁻¹	< 1e-05 s⁻¹	< 1e-05 s⁻¹	< 1e-05 s⁻¹	–

Variant	self-cleavage kobs at 40 uM GlcN6P (glucosamine-6-phosphate [1])	self-cleavage kobs at 10000 uM GlcN6P (glucosamine-6-phosphate [2])	self-cleavage kobs at 160 uM GlcN6P (glucosamine-6-phosphate [3])	self-cleavage kobs at 640 uM GlcN6P (glucosamine-6-phosphate [4])	self-cleavage kobs at 2500 uM GlcN6P (glucosamine-6-phosphate [5])
A33C G44A C71A	< 1e-05 s⁻¹	< 1e-05 s⁻¹	–	–	–
C34A U57G G63C C71U	< 1e-05 s⁻¹	–	–	< 1e-05 s⁻¹	< 1e-05 s⁻¹
A33U G44U	< 1e-05 s⁻¹	< 1e-05 s⁻¹	< 1e-05 s⁻¹	< 1e-05 s⁻¹	–
C34G A53C U69A	< 1e-05 s⁻¹	< 1e-05 s⁻¹	–	–	–
G32C A36G	< 1e-05 s⁻¹	< 1e-05 s⁻¹	< 1e-05 s⁻¹	< 1e-05 s⁻¹	< 1e-05 s⁻¹
C34U A52C	< 1e-05 s⁻¹	< 1e-05 s⁻¹	< 1e-05 s⁻¹	< 1e-05 s⁻¹	< 1e-05 s⁻¹
G32U A36G	< 1e-05 s⁻¹	< 1e-05 s⁻¹	< 1e-05 s⁻¹	< 1e-05 s⁻¹	< 1e-05 s⁻¹
A33G C34U	< 1e-05 s⁻¹	–	–	–	< 1e-05 s⁻¹
A33G G35A U47A C67U C70G	5.2e-05 ± 2.3e-05 s⁻¹	6.3e-05 ± 1.7e-05 s⁻¹	–	–	–
C34G C50A A53G	< 1e-05 s⁻¹	–	–	–	–
C34G A39U C70U	< 1e-05 s⁻¹	–	–	–	–
U31C G43C	< 1e-05 s⁻¹	< 1e-05 s⁻¹	–	< 1e-05 s⁻¹	< 1e-05 s⁻¹
C34G A39U	< 1e-05 s⁻¹	< 1e-05 s⁻¹	–	< 1e-05 s⁻¹	< 1e-05 s⁻¹
G32C G41C	< 1e-05 s⁻¹	< 1e-05 s⁻¹	< 1e-05 s⁻¹	< 1e-05 s⁻¹	< 1e-05 s⁻¹
A33U C50G C61A	0.000105 ± 2e-05 s⁻¹	0.000139 ± 2.7e-05 s⁻¹	–	–	–
A33C A39G G41C A53C	< 1e-05 s⁻¹	< 1e-05 s⁻¹	< 1e-05 s⁻¹	< 1e-05 s⁻¹	< 1e-05 s⁻¹
U31C G43U G66A	< 1e-05 s⁻¹	–	–	–	–
A33G C68U	< 1e-05 s⁻¹	< 1e-05 s⁻¹	–	–	–
A33U G37C	< 1e-05 s⁻¹	< 1e-05 s⁻¹	< 1e-05 s⁻¹	–	–
A33C C67U	< 1e-05 s⁻¹	–	< 1e-05 s⁻¹	< 1e-05 s⁻¹	–
A33C C67G	< 1e-05 s⁻¹	< 1e-05 s⁻¹	< 1e-05 s⁻¹	–	–
C34A C50G C68G	0.000116 ± 2.4e-05 s⁻¹	6.65e-05 ± 1.4e-05 s⁻¹	–	–	–
A33U C67G C70U	< 1e-05 s⁻¹	–	–	–	–

Variant	self-cleavage kobs at 40 uM GlcN6P (glucosamine-6-phosphate [1])	self-cleavage kobs at 10000 uM GlcN6P (glucosamine-6-phosphate [2])	self-cleavage kobs at 160 uM GlcN6P (glucosamine-6-phosphate [3])	self-cleavage kobs at 640 uM GlcN6P (glucosamine-6-phosphate [4])	self-cleavage kobs at 2500 uM GlcN6P (glucosamine-6-phosphate [5])
A33U U45G G51A	< 1e-05 s⁻¹	< 1e-05 s⁻¹	–	–	–
G32A U54A C61G	< 1e-05 s⁻¹	< 1e-05 s⁻¹	–	< 1e-05 s⁻¹	–
A33U G41A C50A A53C G60C	< 1e-05 s⁻¹	< 1e-05 s⁻¹	–	–	–
G32U A36U G41A	< 1e-05 s⁻¹	–	–	< 1e-05 s⁻¹	–
A33U G41A U46C	< 1e-05 s⁻¹	< 1e-05 s⁻¹	–	–	–
C34G A52U U55A	< 1e-05 s⁻¹	< 1e-05 s⁻¹	–	–	< 1e-05 s⁻¹
C34G C50G C68A C70U	8.07e-05 ± 2.3e-05 s⁻¹	5.45e-05 ± 1.1e-05 s⁻¹	–	–	0.000366 ± 0.00013 s⁻¹
A33G U46G G62C	< 1e-05 s⁻¹	–	–	< 1e-05 s⁻¹	< 1e-05 s⁻¹
U31A U49C	< 1e-05 s⁻¹	< 1e-05 s⁻¹	< 1e-05 s⁻¹	< 1e-05 s⁻¹	< 1e-05 s⁻¹
A33G G63A	< 1e-05 s⁻¹	< 1e-05 s⁻¹	< 1e-05 s⁻¹	–	–
C34U A53G C68G	7.28e-05 ± 3.2e-05 s⁻¹	0.000655 ± 0.00017 s⁻¹	–	–	–
G32U G38C	< 1e-05 s⁻¹	–	–	–	–
U31G A39G A53G	0.000493 ± 0.00012 s⁻¹	–	–	0.00385 ± 0.0009 s⁻¹	0.0115 ± 0.0049 s⁻¹
A33G C61G A64C	< 1e-05 s⁻¹	< 1e-05 s⁻¹	–	–	–
G32U A48U	< 1e-05 s⁻¹	–	< 1e-05 s⁻¹	< 1e-05 s⁻¹	–
C34G U55C	< 1e-05 s⁻¹	< 1e-05 s⁻¹	< 1e-05 s⁻¹	< 1e-05 s⁻¹	< 1e-05 s⁻¹
A33C G51C G63C A64U	< 1e-05 s⁻¹	< 1e-05 s⁻¹	< 1e-05 s⁻¹	< 1e-05 s⁻¹	–
A33G G62A	< 1e-05 s⁻¹	< 1e-05 s⁻¹	–	–	–
A33G G62C	< 1e-05 s⁻¹	< 1e-05 s⁻¹	–	< 1e-05 s⁻¹	< 1e-05 s⁻¹
G32U U55G A64U	< 1e-05 s⁻¹	–	–	–	–
C34G G44C	< 1e-05 s⁻¹	< 1e-05 s⁻¹	–	< 1e-05 s⁻¹	< 1e-05 s⁻¹
U31C G35A G37U	< 1e-05 s⁻¹	–	–	–	–
G32A U47A	0.000103 ± 2.6e-05 s⁻¹	0.00237 ± 0.00046 s⁻¹	8.74e-05 ± 1.8e-05 s⁻¹	–	0.000897 ± 0.00019 s⁻¹

Variant	self-cleavage kobs at 40 uM GlcN6P (glucosamine-6-phosphate [1])	self-cleavage kobs at 10000 uM GlcN6P (glucosamine-6-phosphate [2])	self-cleavage kobs at 160 uM GlcN6P (glucosamine-6-phosphate [3])	self-cleavage kobs at 640 uM GlcN6P (glucosamine-6-phosphate [4])	self-cleavage kobs at 2500 uM GlcN6P (glucosamine-6-phosphate [5])
U31G C61U C67U	< 1e-05 s⁻¹	–	–	< 1e-05 s⁻¹	–
A33U G40A A42C	< 1e-05 s⁻¹	< 1e-05 s⁻¹	< 1e-05 s⁻¹	< 1e-05 s⁻¹	< 1e-05 s⁻¹
A33G U54G U65G	< 1e-05 s⁻¹	< 1e-05 s⁻¹	–	–	–
U31C G37C	< 1e-05 s⁻¹	–	< 1e-05 s⁻¹	–	–
U31G A42U C50U C61G	< 1e-05 s⁻¹	< 1e-05 s⁻¹	–	–	–
C34A G51A G63U C71U	< 1e-05 s⁻¹	< 1e-05 s⁻¹	–	–	–
G32C G40C	< 1e-05 s⁻¹	–	< 1e-05 s⁻¹	< 1e-05 s⁻¹	–
A33U G41A	< 1e-05 s⁻¹	4.33e-05 ± 9.1e-06 s⁻¹	–	< 1e-05 s⁻¹	–
U31G G38C	< 1e-05 s⁻¹	–	< 1e-05 s⁻¹	< 1e-05 s⁻¹	< 1e-05 s⁻¹
A33G C34G G35U G38U	< 1e-05 s⁻¹	< 1e-05 s⁻¹	–	–	–
A33C G44C	< 1e-05 s⁻¹	< 1e-05 s⁻¹	< 1e-05 s⁻¹	< 1e-05 s⁻¹	< 1e-05 s⁻¹
U31A U45C A48U	< 1e-05 s⁻¹	–	–	< 1e-05 s⁻¹	–
A33G A36U	< 1e-05 s⁻¹	< 1e-05 s⁻¹	< 1e-05 s⁻¹	–	< 1e-05 s⁻¹
G32U G59A	< 1e-05 s⁻¹	–	< 1e-05 s⁻¹	< 1e-05 s⁻¹	–
G32U A48U C58U C68U	< 1e-05 s⁻¹	–	–	–	–
G32A G40U A42U G44C C67G	< 1e-05 s⁻¹	< 1e-05 s⁻¹	–	–	–
U31C U45C C58A C61G C67G	< 1e-05 s⁻¹	< 1e-05 s⁻¹	–	–	–
C34G G38U G40C C68A	< 1e-05 s⁻¹	< 1e-05 s⁻¹	–	–	–
C34U G63U	< 1e-05 s⁻¹	–	< 1e-05 s⁻¹	< 1e-05 s⁻¹	< 1e-05 s⁻¹
U31G U45C U49G	< 1e-05 s⁻¹	< 1e-05 s⁻¹	–	< 1e-05 s⁻¹	–
A33U C34A	< 1e-05 s⁻¹	< 1e-05 s⁻¹	< 1e-05 s⁻¹	< 1e-05 s⁻¹	< 1e-05 s⁻¹
A33G A36G G51U	< 1e-05 s⁻¹	< 1e-05 s⁻¹	–	–	–
